B1: G protein-coupled receptor kinase type 4 (enzyme, human (endogenous in RPTCs), UniProt P32298 1-578, looked up)
chain: MELENIVANSLLLKARQGGYGKKSGRSKKWKEILTLPPVSQCSELRHSIEKDYSSLCDKQPIGRRLFRQFCDTKPTLKRHIEFLDAVAEYEVADDEDRSDCGLSILDRFFNDKLAAPLPEIPPDVVTECRLGLKEENPSKKAFEECTRVAHNYLRGEPFEEYQESSYFSQFLQWKWLERQPVTKNTFRHYRVLGKGGFGEVCACQVRATGKMYACKKLQKKRIKKRKGEAMALNEKRILEKVQSRFVVSLAYAYETKDALCLVLTIMNGGDLKFHIYNLGNPGFDEQRAVFYAAELCCGLEDLQRERIVYRDLKPENILLDDRGHIRISDLGLATEIPEGQRVRGRVGTVGYMAPEVVNNEKYTFSPDWWGLGCLIYEMIQGHSPFKKYKEKVKWEEVDQRIKNDTEEYSEKFSEDAKSICRMLLTKNPSKRLGCRGEGAAGVKQHPVFKDINFRRLEANMLEPPFCPDPHAVYCKDVLDIEQFSVVKGIYLDTADEDFYARFATGCVSIPWQNEMIESGCFKDINKSESEEALPLDLDKNIHTPVSRPNRGFFYRLFRRGGCLTMVPSEKEVEPKQC
B2: caveolin-1 (natural protein, human (endogenous in RPTCs), UniProt Q03135 1-178, looked up)
chain: MSGGKYVDSEGHLYTVPIREQGNIYKPNNKAMADELSEKQVYDAHTKEIDLVNRDPKHLNDDVVKIDFEDVIAEPEGTHSFDGIWKASFTTFTVTKYWFYRLLSALFGIPMALIWGIYFAILSFLHIWAVVPCIKSFLIEIQCISRVYSIYVHTVCDPLFEAVGKIFSNVRINLQKEI

Assays:
caveolin-1 = biological target: B2; assay: co-IP
[1] = biological target: B1; assay: co-IP

| decrease of co-immunoprecipitation in uRPTCs relative to nRPTCs (caveolin-1) | decrease of co-immunoprecipitation in uRPTCs relative to nRPTCs [1] | Binder |
| --- | --- | --- |
| 58% | – | B1 |
| – | 55.6% | B2 |

Source: publication PMC2897144 (Hypertension, 2009)
